Patent publication US20060233788A1 (published 2006)
Positions count from the first letter of the chain named. No end group written: not given here. *: point of attachment. Octanoyl = CCCCCCCC(=O)*

T1: peptide spanning amino acids 14-28 of human ghrelin (human)
T1 peptide: QRKESKKPPAKLQPR

T2: human ghrelin peptide spanning amino acids 4-20 (human)
T2 peptide: FLSPEHQRVQQRKESKK

T3: human ghrelin peptide 4-16 (human)
T3 peptide: FLSPEHQRVQQRK

T4: human ghrelin peptide 4-28 (human)
T4 peptide: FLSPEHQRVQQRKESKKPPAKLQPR

T5: human ghrelin peptide 13-19 (human)
T5 peptide: QQRKESK

T6: human ghrelin peptide 7-16 (human)
T6 peptide: PEHQRVQQRK

T7: human ghrelin peptide 18-28 (human)
T7 peptide: SKKPPAKLQPR

B1: Ghrelin (9-28) (peptide)
peptide: HQRVQQRKESKKPPAKLQPR
notes: also called hGhrelin (9-28)
B2: full-length, acylated rat ghrelin (peptide, UniProt Q9QYH7 24-51, looked up)
peptide: GSSFLSPEHQKAQQRKESKKPPAKLQPR
modifications: also: acylated (position and acyl group not given here)
notes: mature; The UniProt entry is the precursor; the assay used the ghrelin peptide; also called rGhrelin
B3: Fab 4641 (Fab, V domains shown)
VH: QVQLQQSRPELVRPGASVKMSCRASAYTFTTYWMHWVRQRPGQGLEWIGMIDPSNSDTWLNQKFKDKATLNVDRSSNTAYMQLTSLTSEDSAVYYCARTGFDYWGQGTTLTVSS
VL: DVVMTQTPLSLPVSLGDQASISCRSSQSLVHSDGNTYLHWYLQKPGQSPKLLIYKVSNRFSGVPDRFSGSGSGTDFTLKISRVEAEDLGVYFCSQSTYVSYTFGGGTKLEIKR
notes: Mouse Fab
B4: Ghrelin (1-8, desacyl) (peptide)
peptide: GSSFLSPE
notes: also called hGhrelin (1-8 desacyl)
B5: Human 1-13 acyl (peptide)
peptide: GSSFLSPEHQRVQ
modifications: also: acyl (position and group not restated)
notes: also called human ghrelin 1-13 acyl; active human ghrelin analog
B6: Ghrelin (1-8 acyl) (peptide)
peptide: GSS(Octanoyl)FLSPE
notes: also called hGhrelin (1-8 acyl); Human 1-8 acyl
B7: full-length human ghrelin (1-28) acylated with an octanoyl group on the serine at position 3 (peptide)
peptide: GSSFLSPEHQRVQQRKESKKPPAKLQPX
modifications: octanoyl group on the serine at position 3
notes: the 1-28 form has Arg at 28; also called hGhrelin; acylated hGhrelin
B8: Fab 1181 (Fab, V domains shown)
VH: QVQLQQSGAELVRSGASVKLSCTASGFNIKDYFMQWVKQRPEQGLEWIGWIDPENGETGYAPKFQGKATMTADTASNTAYLQLSSLTSEDTALYYCNAPSVVAKYFDVWGAGTTVTVSS
VL: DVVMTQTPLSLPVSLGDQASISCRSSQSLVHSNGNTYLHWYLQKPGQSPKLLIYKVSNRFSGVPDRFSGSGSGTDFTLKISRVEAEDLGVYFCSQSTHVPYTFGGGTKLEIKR
notes: Mouse Fab from an Omniclonal library (Biosite); kappa light chain (detected and captured with goat anti-mouse kappa); the HCVR amino acid entry is 12
B9: Fab 1621 (Fab, V domains shown)
VH: B8 VH with M34V, Y95F
VL: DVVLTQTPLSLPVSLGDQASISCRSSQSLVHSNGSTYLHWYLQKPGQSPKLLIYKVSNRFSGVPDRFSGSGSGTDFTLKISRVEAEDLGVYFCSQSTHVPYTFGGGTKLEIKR
notes: Mouse Fab, kappa light chain

What was measured:
Fab 1181 [1] = biological target: B8; test: competitive ELISA, Fab 1181 on coated BSA-hGhrelin; compound 1 ug/ml
Experimental: (§1) The plate was incubated at 4° C. overnight. The wells are aspirated and washed twice with washing buffer (20 mM Tris-Cl, pH 7.4, 0.15 M NaCl, 0.1% Tween 20). Compounds (i.e., human ghrelin or ghrelin analogs) are diluted into antibody solution. […] The compound concentration is varied as listed in Tables 2-5 below, but the Fab concentration is kept constant at 0.1 μg/ml in blocking solution (10 mg/ml BSA in wash buffer). […] The plates are incubated for 1 hour at room temperature. The wells are then washed three times with washing buffer.
(§2) Peroxidase-conjugated secondary antibody (50 μl goat anti-mouse kappa HRP (Southern Biotech), diluted 1:2000 in blocking buffer) is added to each well and incubated for 1 hour at room temperature. The wells are then washed 4 times with washing buffer. Fifty microliters of chromogenic substrate (i.e., OPD substrate) is added to each well and allowed to develop at room temperature for 10 minutes. The reaction is stopped by adding 100 μl 1N HCl to each well. The absorbance of the wells is read at 490 nm.
(§3) The average absorbance from triplicate wells is determined.
Target sequence in this assay (VL, as listed by the source, chain 2 of 2, one chain of several): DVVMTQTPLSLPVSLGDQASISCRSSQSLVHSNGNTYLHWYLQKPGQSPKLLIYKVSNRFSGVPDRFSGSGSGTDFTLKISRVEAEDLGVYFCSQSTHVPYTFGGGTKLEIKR

Fab 1181 [2] = biological target: B8; test: competitive ELISA, Fab 1181 on coated BSA-hGhrelin; compound 5 ug/ml
Experimental: as §1, §2, §3
Target sequence in this assay (VL, as listed by the source, chain 2 of 2, one chain of several): as above

Fab 1621 [3] = biological target: B9; test: competitive ELISA, Fab 1621 on coated BSA-hGhrelin; compound 1 ug/ml
Experimental: as §1, §2, §3
Target sequence in this assay (VH, as listed by the source limits assumed, chain 1 of 2): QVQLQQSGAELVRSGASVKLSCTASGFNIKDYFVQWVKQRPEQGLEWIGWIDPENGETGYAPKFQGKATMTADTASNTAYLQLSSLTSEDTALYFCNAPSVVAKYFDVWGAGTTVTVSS
Target sequence in this assay (VL, as listed by the source limits assumed, chain 2 of 2): as the sequence (VL, as listed by the source, chain 2 of 2, one chain of several) above, with M4L, N35S counted along it

Fab 1621 [4] = biological target: B9; test: competitive ELISA, Fab 1621 on coated BSA-hGhrelin; compound 5 ug/ml
Experimental: as §1, §2, §3
Target sequence in this assay (VH, as listed by the source limits assumed, chain 1 of 2): as the sequence (VH, as listed by the source limits assumed, chain 1 of 2) above
Target sequence in this assay (VL, as listed by the source limits assumed, chain 2 of 2): as the sequence (VL, as listed by the source, chain 2 of 2, one chain of several) above, with M4L, N35S counted along it

Fab 1181 [5] = biological target: B8; test: competitive ELISA, Fab 1181 on coated BSA-hGhrelin; compound 0.2 ug/ml
Experimental: as §1, §2, §3
Target sequence in this assay (VL, as listed by the source, chain 2 of 2, one chain of several): as the sequence (VL, as listed by the source, chain 2 of 2, one chain of several) above

Fab 1621 [6] = biological target: B9; test: competitive ELISA, Fab 1621 on coated BSA-hGhrelin; compound 0 (baseline, no compound)
Experimental: as §1, §2, §3
Target sequence in this assay (VL, as listed by the source limits assumed): as the sequence (VL, as listed by the source, chain 2 of 2, one chain of several) above, with M4L, N35S counted along it

Fab 1621 [7] = biological target: B9; test: competitive ELISA, Fab 1621 on coated BSA-hGhrelin; compound 0.2 ug/ml
Experimental: as §1, §2, §3
Target sequence in this assay (VH, as listed by the source limits assumed, chain 1 of 2): as the sequence (VH, as listed by the source limits assumed, chain 1 of 2) above
Target sequence in this assay (VL, as listed by the source limits assumed, chain 2 of 2): as the sequence (VL, as listed by the source, chain 2 of 2, one chain of several) above, with M4L, N35S counted along it

Fab 1181 [8] = biological target: B8; test: competitive ELISA, Fab 1181 on coated BSA-hGhrelin; compound 0 (baseline, no compound)
Experimental: as §1, §2, §3

[9] = biological target: T8, GHS-R1a human ghrelin receptor (human, UniProt Q92847 1-366); test: FLIPR calcium assay, AV12 cells expressing human GHS-R1a
T8 construct: whole, on cells; also called GHS-1a receptor; growth hormone secretagogue receptor
T8 sequence (Q92847 whole entry): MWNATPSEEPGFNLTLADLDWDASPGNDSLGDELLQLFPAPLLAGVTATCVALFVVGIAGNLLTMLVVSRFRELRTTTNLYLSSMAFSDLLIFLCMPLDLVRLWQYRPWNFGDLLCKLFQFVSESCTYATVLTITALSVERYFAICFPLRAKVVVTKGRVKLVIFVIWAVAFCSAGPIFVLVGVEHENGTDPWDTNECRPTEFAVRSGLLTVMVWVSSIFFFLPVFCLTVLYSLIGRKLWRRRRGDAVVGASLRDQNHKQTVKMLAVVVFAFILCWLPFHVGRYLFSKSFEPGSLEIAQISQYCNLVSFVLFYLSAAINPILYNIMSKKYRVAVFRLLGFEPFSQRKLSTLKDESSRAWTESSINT

[10] = biological target: T1, peptide spanning amino acids 14-28 of …; test: FLIPR assay, peptide competes with hGhrelin for the Fab (Fab 5 nM)
Experimental: The final concentration of the sample solution is 0.75% BSA, and calcium at approximately the same concentration as in the FLIPR buffer. Fifty microliters of the sample solution is added to the 50 μl FLIPR buffer in the well with the AV12 cells. […] The cell plate is shaken for 15 seconds prior to loading it into the FLIPR instrument. Test samples or control samples are added to each well, and read by a Fluorometric Imaging Plate Reader (Molecular Devices).

Ghrelin (1-8 acyl) = biological target: B6; test: competitive ELISA on coated BSA-hGhrelin
Experimental: as §1, §2

[11] = biological target: B7; test: cell-based or functional assay
[12] = biological target: T2, human ghrelin peptide spanning amino …; test: cell-based or functional assay
[13] = biological target: T3, human ghrelin peptide 4-16; test: cell-based or functional assay
[14] = biological target: T4, human ghrelin peptide 4-28; test: cell-based or functional assay
Ghrelin (1-8, desacyl) = biological target: B4; test: FLIPR assay, peptide competes with hGhrelin for the Fab (no reduction means the Fab does not bind the peptide)
[15] = biological target: T9, full-length human ghrelin not acylated (human); test: SPR (BIAcore 2000), Fab captured on goat anti-mouse kappa, ghrelin in solution, 25 C
T9 construct: also called hGhrelin (desacyl); des-acyl hGhrelin
Experimental: (§4) The BIAcore® utilizes the optical properties of surface plasmon resonance to detect alterations in protein concentration of interacting molecules within a dextran biosensor matrix. Except where noted, all reagents and materials are purchased from BIAcore® AB (Upsala, Sweden). All measurements are performed at 25° C. Samples containing rat or human ghrelin (full length, acylated) are dissolved in HBS-EP buffer (150 mM sodium chloride, 3 mM EDTA, 0.005% (w/v) surfactant P-20, and 10 mM HEPES, pH 7.4). A capture antibody, goat anti-mouse Kappa (Southern Biotechnology, Inc), is immobilized onto flow cells using amine-coupling chemistry. Flow cells (1-4) are activated for 7 minutes with a 1:1 mixture of 0.1 M N-hydroxysuccinimide and 0.1 M 3-(N,N-dimethylamino)propyl-N-ethylcarbodiimide at a flow rate of 10 μl/min. Goat anti-mouse Kappa (30 μg/mL in 10 mM sodium acetate, pH 4.5) is manually injected over all 4 flow cells at a flow rate of 10 μL/min. The surface density is monitored and additional goat anti-mouse Kappa is injected if needed to individual cell until all flow cells reach a surface density of 4500-5000 response units (RU). Surfaces are blocked with a 7 minute injection of 1 M ethanolamine-HCl, pH 8.5(10 μl/min). To ensure complete removal of any noncovalently bound goat anti-mouse Kappa, 15 μL of 10 mM glycine, pH 1.5 is injected twice. Running buffer used for kinetic experiments contained 10 mM HEPES, pH 7.4, 150 mM NaCl, 0.005% P20.
(§5) Collection of kinetic binding data is performed at maximum flow rate (100 μL/min) and a low surface density to minimize mass transport effects.

[16] = biological target: B2; test: as above
Experimental: as §4, §5

[17] = biological target: B7; test: as above
Experimental: as §4, §5

[18] = biological target: T5, human ghrelin peptide 13-19; test: FLIPR assay, peptide competes with hGhrelin for the Fab
Ghrelin (9-28) = biological target: B1; test: as above
[19] = biological target: T6, human ghrelin peptide 7-16; test: as above
[20] = biological target: T7, human ghrelin peptide 18-28; test: as above

Row | Binder | Ave. OD (Fab 1181 [1]) [OD] | Ave. OD (Fab 1181 [2]) [OD] | Ave. OD (Fab 1621 [3]) [OD] | Ave. OD (Fab 1621 [4]) [OD] | Ave. OD (Fab 1181 [5]) [OD] | Ave. OD (Fab 1621 [6]) [OD] | Ave. OD (Fab 1621 [7]) [OD] | Ave. OD (Fab 1181 [8]) [OD] | further results
1 | B1 | 1.17 | 1.11 | 1.05 | 1.02 | 1.13 | 1.17 | 1.04 | 1.23 | 
2 | B2 | 0.883 | 0.178 | 0.932 | 0.429 | 1.12 | 1.17 | 0.999 | 1.23 | binding result [9]: binds
3 | B3 |  |  |  |  |  |  |  |  | binding result [10]: no binding (tested: 100 nM peptide)
4 | B4 | 1.19 | 1.18 | 1.33 | 1.26 | 1.22 | 1.17 | 1.38 | 1.23 | 
5 | B5 |  |  |  |  |  |  |  |  | binding result [9]: binds
6 | B6 | 1.22 | 1.21 | 1.32 | 1.22 | 1.26 | 1.17 | 1.36 | 1.23 | 
7 | B7 | 0.0497 | 0.0445 | 0.0495 | 0.043 | 0.0784 | 1.17 | 0.131 | 1.23 | 
8 | B8 |  |  |  |  |  |  |  |  | binding result (Ghrelin (1-8 acyl)): no binding (tested: 5 µg/ml); IC50 (nM), Inhibition of hGhrelin at 0.8 nM, FLIPR calcium assay [11]: 0.8 nM; reduction of Fab inhibition of hGhrelin (0.83 nM), FLIPR calcium assay; peptide 100 nM, Fab 0.95 nM [12]: 74%; reduction of Fab inhibition of hGhrelin (0.83 nM), FLIPR calcium assay; peptide 100 nM, Fab 0.95 nM [13]: 30%; reduction of Fab inhibition of hGhrelin (0.83 nM), FLIPR calcium assay; peptide 100 nM, Fab 0.95 nM [14]: 80%; binding result (Ghrelin (1-8, desacyl)): no binding (tested: 100 nM peptide); Kd [15]: 0.434 nM; Kd [16]: 10.4 nM; Kd [17]: 0.202 nM; kon [17]: 3.39e+06 M⁻¹ s⁻¹; binding result [18]: no binding (tested: 100 nM peptide); binding result (Ghrelin (9-28)): no binding (tested: 100 nM peptide); binding result [19]: no binding (tested: 100 nM peptide); binding result [20]: no binding (tested: 100 nM peptide)
9 | B9 |  |  |  |  |  |  |  |  | binding result (Ghrelin (1-8 acyl)): no binding (tested: 5 µg/ml); IC50 (nM), Inhibition of hGhrelin at 0.8 nM, FLIPR calcium assay [11]: 1.64 nM; binding result (Ghrelin (1-8, desacyl)): no binding (tested: 100 nM peptide); Kd [15]: 1.74 nM; Kd [16]: 5.7 nM; Kd [17]: 0.68 nM; binding result [18]: no binding (tested: 100 nM peptide); binding result (Ghrelin (9-28)): no binding (tested: 100 nM peptide); binding result [19]: no binding (tested: 100 nM peptide); binding result [20]: no binding (tested: 100 nM peptide)
